Consider one molecule from publication doi:10.1101/2020.03.30.016881 (bioRxiv, 2020).

No end group written: not given here. TMR = tetramethylrhodamine (5,6-carboxy TMR) linked to N-terminus

A word on the Kd: it is the equilibrium constant for the complex coming apart. A higher Kd goes with lower affinity.

The assay concerns the target E. coli DnaK (Hsp70), unlabelled (E. coli, UniProt P0A6Y8 1-638). The assay is described as follows: fluorescence polarisation.

Chain of E. coli DnaK (Hsp70), unlabelled (P0A6Y8 whole entry): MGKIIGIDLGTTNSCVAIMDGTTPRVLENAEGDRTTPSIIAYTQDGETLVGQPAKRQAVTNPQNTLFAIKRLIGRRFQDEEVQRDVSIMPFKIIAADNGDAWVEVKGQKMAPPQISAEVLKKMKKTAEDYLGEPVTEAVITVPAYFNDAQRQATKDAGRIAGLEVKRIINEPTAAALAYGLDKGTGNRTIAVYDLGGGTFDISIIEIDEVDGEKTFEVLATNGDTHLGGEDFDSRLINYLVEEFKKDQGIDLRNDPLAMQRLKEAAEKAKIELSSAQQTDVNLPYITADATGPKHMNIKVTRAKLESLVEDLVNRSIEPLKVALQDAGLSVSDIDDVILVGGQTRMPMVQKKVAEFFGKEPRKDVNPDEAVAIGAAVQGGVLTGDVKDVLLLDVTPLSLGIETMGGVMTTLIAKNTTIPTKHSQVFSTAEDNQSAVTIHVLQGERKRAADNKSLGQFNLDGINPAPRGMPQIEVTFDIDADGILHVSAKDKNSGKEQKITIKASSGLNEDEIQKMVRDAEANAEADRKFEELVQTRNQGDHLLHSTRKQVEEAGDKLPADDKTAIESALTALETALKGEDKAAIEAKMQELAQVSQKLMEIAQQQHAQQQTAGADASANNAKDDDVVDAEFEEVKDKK

Turning to {TMR}-KCNTATCATQRLANFLVHSSNNFGAILSSTNVGSNTY (ends and bridges not checked) [TMR-IAPP (human IAPP labelled with tetramethylrhodamine at the N-terminus)], the Kd came to 2100 ± 900 nM.
